The target of data set [1] is Escherichia coli RNA polymerase (RNAP) holoenzyme (Escherichia coli) (UniProt P0A7Z4). Description: fluorescence-detected abortive initiation assay (tri- and tetranucleotide synthesis), fit to partial-competitive inhibition.
The target is the same in data set [2]. Description: transcription assay at four NTP concentrations, fit to partial-competitive inhibition (7-mer and 8-mer abortive products); Ki called the reciprocal of the equilibrium binding constant for the MccJ25-RNAP interaction.

With “Escherichia coli RNA polymerase (RNAP) holoenzyme”, in the data set with microcin J25, the α, the factor by which MccJ25 increases KM for NTPs (7-mer and 8-mer abortive products) was found to be 15; the “α, the factor by which MccJ25 increases KM for NTPs (fluorescence-detected abortive initiation, tri- and tetranucleotide synthesis)” value was “α 8.7±2”.

On to microcin J25 (peptide), for which the Ki (in general, the equilibrium dissociation constant of an inhibitor or competing ligand from its target) in data set [1] is 1.2 µM; in data set [2], 1.4 µM.

Source of the values: patent publication US8198021.
